The numbers were not newly measured in paper doi:10.1101/2025.11.26.690829, which cites them from elsewhere.

In the series the target is TDP-43 NTD (Homo sapiens) (UniProt Q13148).

By Kd is commonly meant the free concentration of one partner at which half of the binding sites on the other are occupied at equilibrium, for simple one-to-one binding. Turning to TDP-43 NTD (from UniProt Q13148), the dissociation constant Kd was 2000 nM.
